For orientation: EC50 means the concentration needed to bring the measured effect to its halfway point.

The source of these data is US20250188153A1.

Test [1] addresses hMPV B2 F protein (his-tagged, not trypsin treated) (human metapneumovirus). As to the kind of experiment: BLI epitope binning on hMPV B2 F; first mAb MPV477, second mAb MPE8.
The target is the same in test [2]. As to the kind of experiment: BLI epitope binning on hMPV B2 F; first mAb MPV314, second mAb MPE8.
Test [3] has the same target. As to the kind of experiment: BLI epitope binning on hMPV B2 F; first mAb MPV414, second mAb MPE8.
Test [4] shares this target. Description: BLI epitope binning on hMPV B2 F; first mAb MPV487, second mAb MPE8.
The target is the same in test [5]. As to the kind of experiment: BLI epitope binning on hMPV B2 F; first mAb MPV488, second mAb MPE8.
For test [6] the target is unchanged. As to the kind of experiment: BLI epitope binning on hMPV B2 F; first mAb MPV503, second mAb MPE8.
The target is the same in test [7]. As to the kind of experiment: BLI epitope binning on hMPV B2 F; first mAb MPV481, second mAb MPE8.
For test [8] the target is unchanged. As to the kind of experiment: BLI epitope binning on hMPV B2 F; first mAb MPV483, second mAb MPE8.
In test [9] the target is hMPV A1 F (human metapneumovirus). As to the kind of experiment: ELISA on coated recombinant protein, OD 405 nm. (An ELISA detects its analyte on a solid surface through an enzyme-linked reagent.)
For test [10], the target named is hMPV A1 F monomer (human metapneumovirus). Description: ELISA on coated recombinant protein, OD 405 nm.
Test [11] addresses hMPV B2 F monomer (human metapneumovirus). Description: ELISA on coated recombinant protein, OD 405 nm.
Test [12] has as its target hMPV B2 F trimer (heated) (human metapneumovirus). Description: ELISA on coated recombinant protein, OD 405 nm.
Test [13] deals with hMPV B1 F (human metapneumovirus). As to the kind of experiment: ELISA on coated recombinant protein, OD 405 nm.
Test [14] deals with hMPV A2 F (human metapneumovirus). As to the kind of experiment: ELISA on coated recombinant protein, OD 405 nm.
Test [15] deals with hMPV A1 F trimer (heated) (human metapneumovirus). As to the kind of experiment: ELISA on coated recombinant protein, OD 405 nm.
For test [16], the target named is hMPV B2 F protein (his-tagged, not trypsin treated) (human metapneumovirus). As to the kind of experiment: ELISA on coated recombinant protein, OD 405 nm.
Test [17] concerns the target hMPV B2 F GCN4 (human metapneumovirus). Description: ELISA on coated recombinant protein, OD 405 nm.
The target in test [18] is DS-CavEs2-IPDS (human metapneumovirus). As to the kind of experiment: cryo-EM structure.

B1: MPE8 (antibody, V domains shown)
VH: EVQLVESGGGLVKPGGSLRLSCAASGFTFSSYSMNWVRQAPGKGLEWVSSISASSSYSDYADSAKGRFTISRDNAKTSLFLQMNSLRAEDTAIYFCARARATGYSSITPYFDIWGQGTLVTVSS
VL: QSVVTQPPSVSGAPGQRVTISCTGSSSNIGAGYDVHWYQQLPGTAPKLLIYDNNNRPSGVPDRFSASKSGTSASLAITGLQAEDEADYYCQSYDRSLSGVFGTGTKVTVL
For the molecule B1, the % binding of the second mAb after the first mAb in test [1] is 1%; in test [2], 4%; in test [3], 2%; in test [4], 4%; in test [5] it was 42%; in test [6], -1%. For the same molecule, the % binding of the second mAb after the first mAb was 72% in [7] and 71% in test [8].

B2: MPV483 (antibody, V domains shown)
VH: EVQLVQSGAELKKPGSSVKVSCKASGDTFSNYAISWVRQAPGQGLEWMGGIIPIYNTANYAQKFQGRVTLTADESTSTAYMELSSLRSEDTAVYYCARDVRNNWSVLRGARYYYYGMDVWGQGTTVTVSS
VL: DIVMTQTPFSLSASVGDRVTVTCRASQDISNSLAWFQQKPGKAPKSLIYAASSLQSGVPTRFSGGGSGTDFTLTISSLQPEDFATFYCLQYDSFPPTFGGGTKVEI
As for B2, the concentration giving a half-maximal response (EC50) in test [9] was found to be 0.12 µg/mL; in [10], 0.16 µg/mL; in test [11], 0.13 µg/mL; in test [12], 0.33 µg/mL; in [13], 0.12 µg/mL; in [14], 0.07 µg/mL. Besides, the EC50 was 0.27 µg/mL in test [15], 0.22 µg/mL in test [16] and 0.14 µg/mL in [17].

B3: MPV467 Fab (Fab, V domains shown)
VH: EVQLVESGGGVVRPGTSLRVSCAAFDFNFRDYGMHWVRQAPGKGLEWVAGIWYDGSNKDYADSVKGRFTISRDNSQNTLYLQMNSLRVEDTAVYYCARDPRTHREGALSHFDSWGQGTLVTVSS
VL: PNELTQDPAVSVALGQTVRITCQGDSLRNYFAGWYQQKPGQAPLLVLYGENIRPSGIPDRFSGSSSGNTVSLTITGAQAEDEADYYCNSRDNSGNHWVFGGGTRLTVL
In test [18], B3 returned a buried surface area on hMPV F (heavy chain) of 567 Å^2 and a buried surface area on hMPV F (light chain) of 322 Å^2.

B4: MPV486 (antibody, V domains shown)
VH: EVQLVESGGHLVQSGGSLRLSCAASGFTFSNYILNWVRQAPGKGLEWISYITGGSSAIYYADSVKGRFTISRDDAKNSLYLQMNNLRAEDTAVYYCARSHGYDSSGYYYYFAMDVWGQGTTVTVSS
VL: QSVLTQPPSASGTPGQRVTISCSGSNSNIESNTVNWYQQIPGTAPKLLIYSDNRRPSGVPDRFSGSKSGTSASLAISGLQSEDEADYYCAAWDDSLIGYVFGTGTKVTV
In the case of B4, the EC50 was 0.053 µg/mL in [9]; 0.088 µg/mL in [10]; 0.11 µg/mL in test [11]; 0.24 µg/mL in test [12]; 0.1 µg/mL in test [13]; 0.043 µg/mL in test [14]. Moreover, the EC50 in [15] amounted to 0.22 µg/mL; in test [16], 0.23 µg/mL; in test [17], 0.1 µg/mL.

B5: MPV478 (antibody, V domains shown)
VH: EVQLVQSGAEVKKPGASVKVSCNASGYTFTGYYIHWVRQAPGQGLEWMGWINPRSGGTNYAQKFQGRVTLTRDTSITTAYMDVTRLRPDDTAVYYCATTREGIVLMPRGRGDDALDTWGQGTTVIVSS
VL: DIVMTQSPVSLTVSLGERATINCKSSQSVLSTSNNENYLAWYQQKPGQPPNLLIYWASTRESGVPDRFSGSGSGTDFTLTISSLQAEDVAVYYCQQYFATPITFGPGTKVDVK
Take B5: the concentration for a half-maximal effect (EC50) in [9] is 0.059 µg/mL; in test [10] it was 0.012 µg/mL; in test [11], 0.02 µg/mL; in test [12] it was 0.02 µg/mL; in test [13], 0.022 µg/mL; in test [14] it was 0.021 µg/mL. Besides, the values for the EC50 in test [15], in test [16] and in test [17] were 0.024 µg/mL, 0.027 µg/mL and 0.02 µg/mL, respectively.

B6: MPV464 (antibody, V domains shown)
VH: QVQLQESGPGLVKPSQTLSLTCTVSGGSVRGGGDYWSWIRRPPGKGLEWIGHIYNSGTTFYNPSLKSRVTISIDTSKNQFSLKLRSVTAADTAVYYCGRVGSRATGLPDWIDPWGQGTLVTVSS
VL: SYELTQPPSVSVSPGQTATITCSGTNLGAKYSCWYQQKPGQSPVLVIFQDNKRASGIPARFSASTSGDTATLTISGTQVMDEADYFCQAWDSRTAVFGGGTTLTVL
In the case of B6, the EC50 in [9] came to 0.28 µg/mL; in test [10], 0.067 µg/mL; in [11] it was 0.098 µg/mL; in test [12], 0.29 µg/mL; in test [13] it was 0.086 µg/mL; in [14], 0.083 µg/mL. The half-maximal effective concentration (EC50) came out at 0.24 µg/mL in test [15], 0.98 µg/mL in [16] and 0.12 µg/mL in test [17].
